Data reported in paper PMC2990581, “Molecular imaging of glioblastoma multiforme using anti-insulin-like growth factor-binding protein-7 single-domain antibodies” (British Journal of Cancer, 2010).

Experiments:
[1] = target: IGFBP7 in mouse vessels of orthotopic U87MG.EGFRvIII glioblastoma (Mus musculus, UniProt Q61581); test: cell-based or functional assay
[2] = target: T1, IGFBP7 in human glioblastoma multiforme tissue (Homo sapiens, UniProt Q16270); test: immunostaining of cells or tissue; frozen human or mouse brain tumour sections fixed in methanol; sdAb 4.43 (1:100 of 1 mg/ml) for 3 h at RT; detected with anti-c-myc antibody and alexa 647 secondary; settings: one partner purified
T1 construct: source: endogenous, frozen human GBM tissue sections

[3] = target: T2, recombinant human insulin-like growth factor-binding protein 7 (IGFBP7), R&D Systems (human) (UniProt Q16270); test: SPR; Biacore 3000; ~1400 RU recombinant human IGFBP7 amine-coupled on a CM5 chip, ovalbumin as reference; sdAb flowed at 25-200 nM; 25°C; 10 mM HEPES pH 7.4, 150 mM NaCl, 3 mM EDTA, 0.005% P20; 40 μl/min; 1:1 kinetic fit of the 25 nM data, steady-state affinity model and Scatchard plot of the equilibrium data
T2 sequence: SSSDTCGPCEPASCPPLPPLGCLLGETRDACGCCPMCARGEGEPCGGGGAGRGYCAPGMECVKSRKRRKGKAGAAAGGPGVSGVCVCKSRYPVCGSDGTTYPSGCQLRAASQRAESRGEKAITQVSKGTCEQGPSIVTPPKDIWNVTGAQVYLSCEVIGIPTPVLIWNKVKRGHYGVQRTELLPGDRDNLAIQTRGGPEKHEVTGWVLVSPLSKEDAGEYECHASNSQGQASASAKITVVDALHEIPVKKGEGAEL

IGFBP7 in mouse vessels of orthotopic U87MG.EGFRvIII glioblastoma, sequence (Q61581 26-281): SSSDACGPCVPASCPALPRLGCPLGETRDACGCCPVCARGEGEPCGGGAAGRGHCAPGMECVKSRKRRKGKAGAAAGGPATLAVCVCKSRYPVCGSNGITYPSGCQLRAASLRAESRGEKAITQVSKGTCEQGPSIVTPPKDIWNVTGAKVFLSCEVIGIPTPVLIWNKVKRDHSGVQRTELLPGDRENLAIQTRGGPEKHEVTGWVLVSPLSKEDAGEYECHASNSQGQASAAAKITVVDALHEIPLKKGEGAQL

B1: anti-IGFBP7 single-domain antibody (sdAb) 4.43 (VHH)
VHH: QVKLEESGGGLVQAGGSLRLSCAASGRTSRRYAMGWFRQAPGKEREFVAGISRSGDGTHYAYSVKGRFTISRDNAANTVELQMNSLKPEDTAVYFCAAARTAFYYYGNDYNYWGQGTQVTVSS
notes: VHH isolated from an immune llama phage display library; For in vivo imaging the same sdAb was labelled with Cy5.5 succinimidyl ester (dye/antibody ratio of one) or conjugated to PEGylated Fe3O4 nanoparticles; also called anti-IGFBP7 sdAb; source: expressed periplasmically (vector pSJF2), purified by IMAC; not shown: c-Myc, C-terminal, kept
In the case of B1, the “brain tumour fluorescence signal by in vivo optical imaging 24 h after i.v. injection of 50 μg anti-IGFBP7 sdAb-Cy5.5, against negative control (NC) sdAb-Cy5.5” value [1] is reported as 6 fold, the binding result [2] is reported as “binds” and the Kd [3] is reported as 20 nM. The koff [3] was 0.0013 s⁻¹.
